Test results: PMC6698902

What was measured:
Experiment in all cases: fluorescence anisotropy
[1] = target: T1, A3B-CTD E255A (inactive, 'WT') (Homo sapiens, UniProt Q9UH17 187-382, E255A)
A3B-CTD P206G = A3B-CTD P206G (Homo sapiens, UniProt Q9UH17 187-382, E255A;P206G)
A3B-CTD R211A = A3B-CTD R211A (Homo sapiens, UniProt Q9UH17 187-382, E255A;R211A)
A3B-CTD Y315F = A3B-CTD Y315F (Homo sapiens, UniProt Q9UH17 187-382, E255A;Y315F)
[2] = target: T1, A3B-CTD E255A (inactive, 'WT'); remark: listed apart in the source

T1 sequence (Q9UH17 187-382 E255A): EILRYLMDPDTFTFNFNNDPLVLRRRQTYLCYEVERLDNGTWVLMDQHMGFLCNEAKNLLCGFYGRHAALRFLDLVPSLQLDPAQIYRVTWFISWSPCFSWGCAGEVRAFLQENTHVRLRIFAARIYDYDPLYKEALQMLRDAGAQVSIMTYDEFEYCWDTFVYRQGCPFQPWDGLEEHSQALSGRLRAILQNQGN
Chain of A3B-CTD P206G (Q9UH17 187-382 P206G/E255A): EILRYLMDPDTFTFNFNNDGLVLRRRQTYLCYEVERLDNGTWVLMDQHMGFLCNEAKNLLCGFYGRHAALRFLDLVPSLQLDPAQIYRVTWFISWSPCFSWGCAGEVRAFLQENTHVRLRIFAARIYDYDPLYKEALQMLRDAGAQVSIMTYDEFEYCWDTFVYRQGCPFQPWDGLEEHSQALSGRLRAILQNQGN
Chain of A3B-CTD R211A (Q9UH17 187-382 R211A/E255A): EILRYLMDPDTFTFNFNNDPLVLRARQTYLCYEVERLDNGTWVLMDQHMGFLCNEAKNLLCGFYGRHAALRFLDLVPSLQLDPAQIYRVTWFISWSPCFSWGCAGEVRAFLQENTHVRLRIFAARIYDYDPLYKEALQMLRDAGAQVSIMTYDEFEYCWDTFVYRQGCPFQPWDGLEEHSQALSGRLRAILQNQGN
Chain of A3B-CTD Y315F (Q9UH17 187-382 E255A/Y315F): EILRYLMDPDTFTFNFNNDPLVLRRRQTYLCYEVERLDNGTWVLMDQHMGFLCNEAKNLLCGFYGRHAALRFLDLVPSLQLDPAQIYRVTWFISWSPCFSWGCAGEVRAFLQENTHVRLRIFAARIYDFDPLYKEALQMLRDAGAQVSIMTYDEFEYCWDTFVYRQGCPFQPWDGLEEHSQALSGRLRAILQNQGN

GCCATCATTCGATGGG (structured_DNA) [DNA hairpin]
Kd [1]: 2 µM | binding result (A3B-CTD P206G): no binding | binding result (A3B-CTD R211A): no binding | binding result (A3B-CTD Y315F): binds

AAAAAAAATCGAAAA (ssDNA) [polyA TCG (linear DNA)]
Kd [1]: 5.4 µM | binding result (A3B-CTD P206G): no binding | binding result (A3B-CTD R211A): no binding

GCCAUCUAUCGAUGG (structured_RNA) [RNA hairpin]
binding result [2]: no binding
